The Kd is the concentration at which binding is half-saturated. High values mean a looser complex, low ones a tighter complex.

B1: anti-DLL3 trispecific protein 1F011 (protein, part only; not given: anti-CD3 fragment and anti-albumin sdAb, part only)
chain, part: EVQLVESGGGLVQPGGSLTLSCVASGSTSSINAIGWYRRAPGKQRELVAGISSDGSKVYADSVKGRFTISRDNAKNSVYLQMNSLRAEDTAVYYCYYFRTVKGSSMRYWGQGTLVTVSSGGGGSGGGSGGGGSGGGSHHHHHH
B2: anti-DLL3 trispecific protein 1E012 (protein, part only; not given: CD3 binder and albumin binder, part only)
chain, part: B1 chain, part with I31T, I34M, A60V, K102S, R107V
B3: anti-DLL3 trispecific protein 1F012 (protein, part only; not given: anti-CD3 fragment and anti-albumin sdAb, part only)
chain, part: B1 chain, part with S27L, I34M, A60Q, V101N, K102S
B4: anti-DLL3 trispecific protein 1D09 (protein, part only; not given: anti-CD3 and anti-albumin domains, part only)
chain, part: B1 chain, part with I34M, G35A, A60T, V101I, K102S
B5: anti-DLL3 trispecific protein 1B011 (protein, part only; not given: CD3 binder and albumin binder, part only)
chain, part: B1 chain, part with S30R, I34M, K102Y
B6: anti-DLL3 trispecific protein 1B01 (protein, part only; not given: anti-CD3 fragment and anti-albumin sdAb, part only)
chain, part: B1 chain, part with S30I, I34M, V48A, Y59I, T100R, K102S
B7: anti-DLL3 trispecific protein 1E010 (protein, part only; not given: anti-CD3 fragment and anti-albumin sdAb, part only)
chain, part: B1 chain, part with T28V, I34M, A60I, K102S, S104L
B8: anti-DLL3 trispecific protein 2B07 (protein, part only; not given: CD3 fragment and albumin sdAb, part only)
chain, part: B1 chain, part with I34F, K102R
B9: anti-DLL3 trispecific protein 1D010 (protein, part only; not given: anti-CD3 and anti-albumin domains, part only)
chain, part: B1 chain, part with I31N, I34M, G35A, A60T, V101R, K102S
B10: anti-DLL3 trispecific protein 1C03 (protein, part only; not given: anti-CD3 and anti-albumin domains, part only)
chain, part: B1 chain, part with I34M, G35A, G55N, K102G
B11: anti-DLL3 trispecific protein 2G03 (protein, part only; not given: CD3 binder and albumin binder, part only)
chain, part: B1 chain, part with I34M, K57L, K102S, Y108A
B12: anti-DLL3 trispecific protein 1H01 (protein, part only; not given: CD3 binder and albumin binder, part only)
chain, part: B1 chain, part with I34M, G35A, V48A, G55N, V101R, K102S
B13: anti-DLL3 trispecific protein 1F05 (protein, part only; not given: CD3 fragment and albumin sdAb, part only)
chain, part: B1 chain, part with S29R, I34M, R99H, K102S
B14: anti-DLL3 trispecific protein 1C05 (protein, part only; not given: CD3 binder and albumin binder, part only)
chain, part: B1 chain, part with I34M, G35A, K102S, S105H
B15: anti-DLL3 trispecific protein 2H03 (protein, part only; not given: CD3 binder and albumin binder, part only)
chain, part: B1 chain, part with I34M, G35A, T100Q, K102S
B16: anti-DLL3 trispecific protein 1A06 (protein, part only; not given: anti-CD3 fragment and anti-albumin sdAb, part only)
chain, part: B1 chain, part with I34M, V48A, K57S, K102S, M106K
B17: anti-DLL3 trispecific protein 2F03 (protein, part only; not given: anti-CD3 fragment and anti-albumin sdAb, part only)
chain, part: B1 chain, part with I34M, G35A, V48A, G55N, K102G
B18: anti-DLL3 trispecific protein 1B09 (protein, part only; not given: anti-CD3 and anti-albumin domains, part only)
chain, part: B1 chain, part with I34M, G35A, A60V, K102S
B19: anti-DLL3 trispecific protein 2E02 (protein, part only; not given: anti-CD3 fragment and anti-albumin sdAb, part only)
chain, part: B1 chain, part with S30A, I34M, A60V, K102S, M106Q
B20: anti-DLL3 trispecific protein 2C08 (protein, part only; not given: anti-CD3 and anti-albumin domains, part only)
chain, part: B1 chain, part with S30R, I34M, A60Q, T100R, K102S
B21: anti-DLL3 trispecific protein 1C02 (protein, part only; not given: anti-CD3 fragment and anti-albumin sdAb, part only)
chain, part: B1 chain, part with I34M, G35A, A60S, K102S, Y108S
B22: anti-DLL3 trispecific protein 2A04 (protein, part only; not given: anti-CD3 fragment and anti-albumin domain, part only)
chain, part: B1 chain, part with I34M, G35A, A60T, V101T, K102S
B23: anti-DLL3 trispecific protein 2D011 (protein, part only; not given: anti-CD3 fragment and anti-albumin sdAb, part only)
chain, part: B1 chain, part with S27T, I34M, K102W
B24: anti-DLL3 trispecific protein 2H011 (protein, part only; not given: anti-CD3 fragment and anti-albumin domain, part only)
chain, part: B1 chain, part with S30R, I34M, T100R, K102S
B25: anti-DLL3 trispecific protein 2H07 (protein, part only; not given: anti-CD3 fragment and anti-albumin sdAb, part only)
chain, part: B1 chain, part with I34V, K57T, K102S, S104H
B26: anti-DLL3 trispecific protein 1D01 (protein, part only; not given: CD3 binder and albumin binder, part only)
chain, part: B1 chain, part with S30D, I34M, G55K, K102R
B27: anti-DLL3 trispecific protein 2D07 (protein, part only; not given: anti-CD3 fragment and anti-albumin sdAb, part only)
chain, part: B1 chain, part with I34V, S56T, A60R, K102Q
B28: anti-DLL3 trispecific protein 1D03 (protein, part only; not given: CD3 binder and albumin binder, part only)
chain, part: B1 chain, part with Y59L, T100I, K102S, R107G
B29: anti-DLL3 trispecific protein 4C01 (protein, part only; not given: anti-CD3 fragment and anti-albumin sdAb, part only)
chain, part: EVQLVESGGGLVQPGGSLTLSCAASGSSVRFLSMAWYRQAPGKKRELVAGISADGSTVYIDSVKGRFTISRDNAKNSVYLQMNSLRAEDTAVYYCYAYRWKTRYTYWGQGTLVTVSSGGGGSGGGSGGGGSGGGSHHHHHH
B30: anti-DLL3 trispecific protein 3D07 (protein, part only; not given: anti-CD3 and anti-albumin domains, part only)
chain, part: B29 chain, part with V58D, R99S, K101T
B31: anti-DLL3 trispecific protein 4D011 (protein, part only; not given: anti-CD3 fragment and anti-albumin sdAb, part only)
chain, part: B29 chain, part with A53V, V58D, K101R
B32: anti-DLL3 trispecific protein 4A011 (protein, part only; not given: CD3 binder and albumin binder, part only)
chain, part: B29 chain, part with S28K, R30S, V58T
B33: anti-DLL3 trispecific protein 4F010 (protein, part only; not given: anti-CD3 and anti-albumin domains, part only)
chain, part: B29 chain, part with R30S, A53I, V58D, D61K, K101T, T105R
B34: anti-DLL3 trispecific protein 4C011 (protein, part only; not given: anti-CD3 and anti-albumin domains, part only)
chain, part: B29 chain, part with S28R, R30S, K101T, T102R
B35: anti-DLL3 trispecific protein 4D08 (protein, part only; not given: anti-CD3 and anti-albumin domains, part only)
chain, part: B29 chain, part with R30N, V58H, K101L
B36: anti-DLL3 trispecific protein 3C08 (protein, part only; not given: anti-CD3 fragment and anti-albumin sdAb, part only)
chain, part: B29 chain, part with R30K, A53L, V58D, K101T, T102G
B37: anti-DLL3 trispecific protein 4B09 (protein, part only; not given: anti-CD3 fragment and anti-albumin sdAb, part only)
chain, part: B29 chain, part with R30S, V58D, D61S, R99S, K101T
B38: anti-DLL3 trispecific protein 4H04 (protein, part only; not given: anti-CD3 fragment and anti-albumin sdAb, part only)
chain, part: B29 chain, part with R30K, I51V, V58D, R99E, K101T
B39: anti-DLL3 trispecific protein 3D011 (protein, part only; not given: CD3 binder and albumin binder, part only)
chain, part: B29 chain, part with R30S, F31R, T57R, V58D, K101T, T105K

Numbering of substitutions follows the chain as printed.

Sequence of biotinylated human DLL3 protein expressed as a human IgG1 fusion protein (human) (Q9NYJ7 other isoform, or with tags, fused parts or gaps): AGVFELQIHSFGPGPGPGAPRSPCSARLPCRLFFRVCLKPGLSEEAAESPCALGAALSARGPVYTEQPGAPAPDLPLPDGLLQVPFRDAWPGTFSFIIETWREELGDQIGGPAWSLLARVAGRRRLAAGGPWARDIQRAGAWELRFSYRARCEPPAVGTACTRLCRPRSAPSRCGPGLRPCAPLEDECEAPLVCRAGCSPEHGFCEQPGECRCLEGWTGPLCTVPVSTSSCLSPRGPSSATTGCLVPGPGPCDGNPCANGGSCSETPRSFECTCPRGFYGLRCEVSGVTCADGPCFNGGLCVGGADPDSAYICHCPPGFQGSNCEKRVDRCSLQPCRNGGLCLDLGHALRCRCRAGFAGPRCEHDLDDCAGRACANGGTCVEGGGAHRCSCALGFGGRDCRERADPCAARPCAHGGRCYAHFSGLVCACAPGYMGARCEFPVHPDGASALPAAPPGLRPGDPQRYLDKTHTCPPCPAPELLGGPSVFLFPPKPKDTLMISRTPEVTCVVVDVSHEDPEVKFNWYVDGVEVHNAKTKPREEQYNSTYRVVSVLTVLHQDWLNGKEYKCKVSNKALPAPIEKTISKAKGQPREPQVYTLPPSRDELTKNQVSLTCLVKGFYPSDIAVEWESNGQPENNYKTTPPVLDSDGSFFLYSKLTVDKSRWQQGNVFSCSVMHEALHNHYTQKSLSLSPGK

This assay has as its target biotinylated human DLL3 protein expressed as a human IgG1 fusion protein (human) (UniProt Q9NYJ7). Kind of assay: Octet BLI; biotinylated huDLL3-IgG1 fusion on streptavidin tips; single 50 nM; conditioned medium.
B1: the equilibrium dissociation constant (Kd) came out at 5 nM.

Regarding B2, the equilibrium dissociation constant (Kd) amounted to 5.3 nM. Turning to B3, the Kd came to 5.8 nM. The value for B4 was 5.2 nM; that for B5 was 5.7 nM. Molecule B6 displayed a Kd of 5.2 nM. The molecule B7 showed a Kd of 5.7 nM. Regarding B8, the Kd was found to be 5.7 nM. For the molecule B9, the Kd was found to be 5 nM. Regarding B10, the Kd was found to be 6.1 nM. B11: the dissociation constant (Kd) turned out to be 5.6 nM. As for B12, the Kd was found to be 5.7 nM. Take B13: the Kd is 5.8 nM. The value for B14 was 5.3 nM; that for B15 was 5.3 nM; that for B16 was 5.6 nM. The molecule B17 showed a Kd of 5.9 nM.

In turn, B18 returned a Kd of 5.4 nM.

Molecule B19 yielded a Kd of 6 nM. B20 had a Kd of 6.1 nM. B21: the dissociation constant Kd is 6.2 nM. The molecule B22 registered a Kd of 5.6 nM. The value for B23 was 5.4 nM; that for B24 was 5 nM. The value for B25 was 6.1 nM; that for B26 was 5.8 nM.

B27 returned a Kd of 6 nM. The value for B28 was 5.8 nM. The value for B29 was 5.1 nM; that for B30 was 5.9 nM; that for B31 was 5.8 nM. Turning to B32, the equilibrium dissociation constant (Kd) was 5.6 nM.

Consider B33, for which the Kd worked out at 5.8 nM. The value for B34 was 6 nM; that for B35 was 5.9 nM; that for B36 was 5.9 nM. B37 had a Kd of 5.4 nM. The molecule B38 gave a Kd of 6.1 nM. Consider B39, for which the Kd turned out to be 5.3 nM.

(Values after US20200095340A1.)
